Reference: publication PMC5666606 (The EMBO Journal, 2017)

Assays:
RBPJ-(53-474) [1] = target: T1, RBPJ-(53-474) (mouse, UniProt P31266 53-474); test: ITC
RBPJ-(53-474) [2] = target: T1, RBPJ-(53-474); test: ITC; remark: listed apart in the source

T1 sequence (P31266 53-474): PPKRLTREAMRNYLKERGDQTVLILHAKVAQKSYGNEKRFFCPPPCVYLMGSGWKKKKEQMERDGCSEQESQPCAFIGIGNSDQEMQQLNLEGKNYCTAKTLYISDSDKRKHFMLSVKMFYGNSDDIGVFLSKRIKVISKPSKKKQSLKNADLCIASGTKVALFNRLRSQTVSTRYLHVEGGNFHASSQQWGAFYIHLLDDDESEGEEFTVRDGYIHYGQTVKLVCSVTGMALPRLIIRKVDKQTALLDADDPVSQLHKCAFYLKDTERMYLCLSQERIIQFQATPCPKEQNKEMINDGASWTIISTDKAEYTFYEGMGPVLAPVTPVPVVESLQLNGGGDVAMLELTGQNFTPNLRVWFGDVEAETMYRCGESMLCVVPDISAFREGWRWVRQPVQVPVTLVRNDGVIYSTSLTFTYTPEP

B1: L3MBTL3-(31-70) (domain or fragment, human, UniProt Q96JM7 31-70, looked up)
chain: SDLKFRVNEFGALEVITDENEMENVKKATATTTWMVPTAQ
- stoichiometry N (RBPJ-(53-474) [1]): 1
- Ka (RBPJ-(53-474) [2]): 2.27e+06 M⁻¹
- Kd (RBPJ-(53-474) [2]): 450 nM
- dH (RBPJ-(53-474) [2]): -7.52 kcal/mol
